Measurements reported in the Immune Epitope Database (IEDB).

Tests used:
[1] = target: HLA-A*02:16; assay: IEDB peptide-MHC binding, purified MHC/direct/fluorescence; filed as Kd, often an IC50 or EC50 that approximates it; ≥ and ≤ were set here for values at or beyond the usual limits of such assays; details: source organism: Vibrio cholerae V52
[2] = target: HLA-B*27:03; assay: as above; details: source organism: Vibrio cholerae V52
[3] = target: HLA-A*02:19; assay: as above; details: source organism: Vibrio cholerae V52
[4] = target: HLA-B*15:01; assay: as above; details: source organism: Vibrio cholerae V52
[5] = target: HLA-A*23:01; assay: as above; details: source organism: Vibrio cholerae V52
[6] = target: HLA-A*24:03; assay: as above; details: source organism: Vibrio cholerae V52
[7] = target: HLA-A*02:12; assay: as above; details: source organism: Vibrio cholerae V52
[8] = target: HLA-B*39:01; assay: as above; details: source organism: Vibrio cholerae V52
[9] = target: HLA-A*29:02; assay: as above; details: source organism: Vibrio cholerae V52
[10] = target: HLA-A*02:01; assay: as above; details: source organism: Vibrio cholerae V52
[11] = target: HLA-A*26:01; assay: as above; details: source organism: Vibrio cholerae V52
[12] = target: HLA-B*18:01; assay: as above; details: source organism: Vibrio cholerae V52
[13] = target: HLA-B*57:01; assay: as above; details: source organism: Vibrio cholerae V52
[14] = target: HLA-A*68:02; assay: as above; details: source organism: Vibrio cholerae V52
[15] = target: HLA-B*15:17; assay: as above; details: source organism: Vibrio cholerae V52
[16] = target: HLA-A*02:11; assay: as above; details: source organism: Vibrio cholerae V52
[17] = target: HLA-A*02:03; assay: as above; details: source organism: Vibrio cholerae V52
[18] = target: HLA-A*03:01; assay: as above; details: source organism: Vibrio cholerae V52
[19] = target: HLA-B*44:02; assay: IEDB peptide-MHC binding, purified MHC/competitive/fluorescence; filed as Kd, often an IC50 or EC50 that approximates it; ≥ and ≤ were set here for values at or beyond the usual limits of such assays; details: source organism: Vibrio cholerae 2740-80
[20] = target: HLA-B*53:01; assay: as above; details: source organism: Vibrio cholerae 2740-80
[21] = target: HLA-B*51:01; assay: as above; details: source organism: Vibrio cholerae 2740-80
[22] = target: HLA-B*08:01; assay: as above; details: source organism: Vibrio cholerae 2740-80
[23] = target: HLA-B*40:01; assay: as above; details: source organism: Vibrio cholerae 2740-80
[24] = target: HLA-B*27:05; assay: as above; details: source organism: Vibrio cholerae 2740-80
[25] = target: HLA-B*58:01; assay: as above; details: source organism: Vibrio cholerae 2740-80

Measured: Kd

MGMEQTMSV
≥ 5 µM: [19] | [20] | [21] | [22] | [23] | [24] | [25]
≤ 0.001 µM: [14]
≥ 20 µM: all other assays above
